From publication PMC3478855

How the values were obtained:
Experiment in all cases: SPR
[1] = test system: inactivated AIV H9N2 whole virus (Influenza A virus H9N2); details: biotin, PBS 10 mM pH 7.4, temperature not stated
[2] = test system: AIV H5N9 whole virus (Influenza A virus H5N9); details: biotin, PBS 10 mM pH 7.4, temperature not stated
[3] = test system: inactivated AIV H1N1 whole virus (Influenza A virus H1N1); details: biotin, PBS 10 mM pH 7.4, temperature not stated
[4] = test system: inactivated AIV H5N1 whole virus (HA on virion) (Influenza A virus H5N1); details: biotin, PBS 10 mM pH 7.4, temperature not stated
[5] = test system: inactivated AIV H7N2 whole virus (Influenza A virus H7N2); details: biotin, PBS 10 mM pH 7.4, temperature not stated
[6] = test system: inactivated AIV H2N2 whole virus (Influenza A virus H2N2); details: biotin, PBS 10 mM pH 7.4, temperature not stated
[7] = test system: inactivated AIV H5N2 whole virus (Influenza A virus H5N2); details: biotin, PBS 10 mM pH 7.4, temperature not stated
[8] = test system: hemagglutinin (HA) of AIV H5N1, purified (Influenza A virus H5N1); details: PBS 10 mM pH 7.4, temperature not stated; cited from earlier work

Sequence: GTGTGCATGGATAGCACGTAACGGTGTAGTAGATACGTGCGGGTAGGAAGAAAGGGAAATAGTTGTCCTGTTG [H5N1 DNA aptamer, biotinylated (sensor)]
- binding signal [1]: 2 RI 10^-6
- binding signal [2]: 3 RI 10^-6
- binding signal [3]: -4 RI 10^-6
- binding signal [4]: 262 RI 10^-6
- binding signal [5]: 7 RI 10^-6
- binding signal [6]: -1 RI 10^-6
- binding signal [7]: 10 RI 10^-6

Sequence: GTGTGCATGGATAGCACGTAACGGTGTAGTAGATACGTGCGGGTAGGAAGAAAGGGAAATAGTTGTCCTGTTG [H5N1 DNA aptamer, best candidate (previous study)]
- Kd [8]: 4.65 nM
